Assay results as given in patent publication US20050026233A1, “Methods of monitoring and modulating LKB1 activity and its downstream targets” (Medical Research Council, priority 2003, published 2005).

Tests used:
AMPK = experiment: Phosphorylation of T172 of AMPK by immunoblotting with anti-phosphothreonine 172 antibody; type: biochemical, mammalian; details: immunoblot
Experimental: (§1) The beads were removed by centrifugation, and proteins in the supernatant were analyzed by SDS-PAGE and autoradiography. Molecular size markers (kDa) are indicated. (C) Bacterially expressed AMPK (0.15 μg) was phosphorylated by GST-Tos3p and analysed by immunoblotting with anti-phosphothreonine 172 specific antibody (Cell Signalling Technologies). AMPK was also incubated with GST or partially purified rat liver AMPKK (Hawley, 1996).
Phosphorylation of T172 was determined by immunoblotting (FIG. 4E).
Bacterially expressed AMPK (α1β1γ1) was purified by chromatography using Ni-NTA agarose (Qiagen) as previously described (the purification is as in Neumann et al., 2003 Protein Expression and Purification, incorporated herein by reference). AMPK was incubated with 100 μM ATP, 5 mM MgCl2, 200 μM AMP and 1 mM DTT in 50 mM Hepes, pH 7.4 in the presence or absence of upstream kinase for 30 min at 30° C. Following brief centrifugation, the supernatant containing AMPK was removed and activity measured using the SAMS peptide assay (Davies et al., 1989). Phosphorylation of T172 was determined by Western blotting using an antibody that specifically recognizes phospho-threonine 172 within the α subunit of AMPK (Cell Signaling Technologies).

AMPK (α1β1γ1) = target: T1, AMPK (α1β1γ1) (Rattus norvegicus, UniProt P54645); experiment: Activation of bacterially expressed AMPK by upstream kinase, SAMS peptide assay; type: biochemical, mammalian; details: recombinant AMPK α1β1γ1, MgATP, 30 min at 30° C
T1 construct: made in house; host or cells: bacteria (E. coli per the title of Neumann 2003)
T1 sequence (P54645 13-559 limits assumed): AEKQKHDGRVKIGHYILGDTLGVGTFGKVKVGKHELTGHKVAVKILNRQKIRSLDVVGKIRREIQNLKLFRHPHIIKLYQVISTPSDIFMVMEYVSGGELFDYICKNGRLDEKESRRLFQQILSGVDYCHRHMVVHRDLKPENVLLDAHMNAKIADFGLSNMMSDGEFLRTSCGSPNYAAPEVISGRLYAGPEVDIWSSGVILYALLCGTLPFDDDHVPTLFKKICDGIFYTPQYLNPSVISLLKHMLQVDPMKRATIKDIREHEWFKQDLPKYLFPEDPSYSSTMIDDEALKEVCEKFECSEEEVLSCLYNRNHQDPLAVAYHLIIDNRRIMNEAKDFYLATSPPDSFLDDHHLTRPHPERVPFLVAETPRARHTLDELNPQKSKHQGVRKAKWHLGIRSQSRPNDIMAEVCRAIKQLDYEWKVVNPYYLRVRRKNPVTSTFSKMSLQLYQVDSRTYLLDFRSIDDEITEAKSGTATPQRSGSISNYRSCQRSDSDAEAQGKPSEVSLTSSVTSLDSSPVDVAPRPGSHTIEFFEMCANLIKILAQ
T1 sequence (P80386 whole entry partner): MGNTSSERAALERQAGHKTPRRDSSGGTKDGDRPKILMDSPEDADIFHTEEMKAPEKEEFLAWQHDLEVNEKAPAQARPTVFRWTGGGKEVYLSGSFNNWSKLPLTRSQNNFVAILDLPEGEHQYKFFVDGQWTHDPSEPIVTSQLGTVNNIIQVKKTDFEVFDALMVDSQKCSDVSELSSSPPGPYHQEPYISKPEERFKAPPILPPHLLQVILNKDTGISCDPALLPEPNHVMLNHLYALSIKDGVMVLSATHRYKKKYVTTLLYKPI
T1 sequence (P80385 whole entry partner): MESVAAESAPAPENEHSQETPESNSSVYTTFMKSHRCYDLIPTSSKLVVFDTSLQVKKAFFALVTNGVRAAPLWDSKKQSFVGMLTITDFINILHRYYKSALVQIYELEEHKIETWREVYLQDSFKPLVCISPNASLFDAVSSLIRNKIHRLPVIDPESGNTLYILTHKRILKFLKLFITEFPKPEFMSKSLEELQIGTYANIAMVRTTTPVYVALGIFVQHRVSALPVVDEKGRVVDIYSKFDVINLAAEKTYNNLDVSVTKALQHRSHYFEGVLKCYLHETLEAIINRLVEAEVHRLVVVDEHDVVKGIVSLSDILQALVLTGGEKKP
Experimental: FIG. 4. Tos3p and LKB1 phosphorylate and activate AMPK in vitro. (A) Bacterially expressed AMPK (α1β1γ1 (Neumann, 2003)) was incubated with MgATP and GST-kinase bound to glutathione-Sepharose for 30 min at 30° C. Following centrifugation to remove the resin, AMPK activity in the supernatant was measured using the SAMS peptide assay (Davies, 1989).
as §1, with “AMPK was also incubated with GST or partially purified rat liver AMPKK (Hawley, 1996).” left out
Recombinant AMPK (α1β1γ1) expressed in bacteria (Neumann, 2003) was incubated with each of the kinases and MgATP, and AMPK activity was determined using the SAMS peptide assay. […]
Following centrifugation to remove the resin, AMPK activity in the supernatant was measured using the SAMS peptide assay (Davies, 1989).
Bacterially expressed AMPK (α1β1γ1) was purified by chromatography using Ni-NTA agarose (Qiagen) as previously described (the purification is as in Neumann et al., 2003 Protein Expression and Purification, incorporated herein by reference). […] Following brief centrifugation, the supernatant containing AMPK was removed and activity measured using the SAMS peptide assay (Davies et al., 1989). […]

Sequence of AMPK (P54645 13-559 limits assumed): as the sequence (P54645 13-559 limits assumed) above
Sequence of AMPK (P80386 whole entry partner): as the sequence (P80386 whole entry partner) above
Sequence of AMPK (P80385 whole entry partner): as the sequence (P80385 whole entry partner) above

AMPK activity after incubation with upstream kinase (AMPK (α1β1γ1)): activated recombinant AMPK
B1: LKB1: FLAG-tagged full length wild-type mouse LKB1 tumor suppressor kinase purified from COS7 cell lysates (protein, UniProt Q9WTK7 1-436, looked up)
chain: MDVADPEPLGLFSEGELMSVGMDTFIHRIDSTEVIYQPRRKRAKLIGKYLMGDLLGEGSYGKVKEVLDSETLCRRAVKILKKKKLRRIPNGEANVKKEIQLLRRLRHRNVIQLVDVLYNEEKQKMYMVMEYCVCGMQEMLDSVPEKRFPVCQAHGYFRQLIDGLEYLHSQGIVHKDIKPGNLLLTTNGTLKISDLGVAEALHPFAVDDTCRTSQGSPAFQPPEIANGLDTFSGFKVDIWSAGVTLYNITTGLYPFEGDNIYKLFENIGRGDFTIPCDCGPPLSDLLRGMLEYEPAKRFSIRQIRQHSWFRKKHPLAEALVPIPPSPDTKDRWRSMTVVPYLEDLHGRAEEEEEEDLFDIEDGIIYTQDFTVPGQVLEEEVGQNGQSHSLPKAVCVNGTEPQLSSKVKPEGRPGTANPARKVCSSNKIRRLSACKQQ
modifications: full-length FLAG tag
notes: FLAG-tagged full length wild-type mouse LKB1 tumor suppressor kinase purified from COS7 cell lysates
Phosphorylation of AMPK on T172 (AMPK): phosphorylated T172
